Earlier results as cited in paper PMC12405408.

Target: CaSR (Homo sapiens) (UniProt P41180)
Sequence of UniProt P41180 (P41180 20-1078): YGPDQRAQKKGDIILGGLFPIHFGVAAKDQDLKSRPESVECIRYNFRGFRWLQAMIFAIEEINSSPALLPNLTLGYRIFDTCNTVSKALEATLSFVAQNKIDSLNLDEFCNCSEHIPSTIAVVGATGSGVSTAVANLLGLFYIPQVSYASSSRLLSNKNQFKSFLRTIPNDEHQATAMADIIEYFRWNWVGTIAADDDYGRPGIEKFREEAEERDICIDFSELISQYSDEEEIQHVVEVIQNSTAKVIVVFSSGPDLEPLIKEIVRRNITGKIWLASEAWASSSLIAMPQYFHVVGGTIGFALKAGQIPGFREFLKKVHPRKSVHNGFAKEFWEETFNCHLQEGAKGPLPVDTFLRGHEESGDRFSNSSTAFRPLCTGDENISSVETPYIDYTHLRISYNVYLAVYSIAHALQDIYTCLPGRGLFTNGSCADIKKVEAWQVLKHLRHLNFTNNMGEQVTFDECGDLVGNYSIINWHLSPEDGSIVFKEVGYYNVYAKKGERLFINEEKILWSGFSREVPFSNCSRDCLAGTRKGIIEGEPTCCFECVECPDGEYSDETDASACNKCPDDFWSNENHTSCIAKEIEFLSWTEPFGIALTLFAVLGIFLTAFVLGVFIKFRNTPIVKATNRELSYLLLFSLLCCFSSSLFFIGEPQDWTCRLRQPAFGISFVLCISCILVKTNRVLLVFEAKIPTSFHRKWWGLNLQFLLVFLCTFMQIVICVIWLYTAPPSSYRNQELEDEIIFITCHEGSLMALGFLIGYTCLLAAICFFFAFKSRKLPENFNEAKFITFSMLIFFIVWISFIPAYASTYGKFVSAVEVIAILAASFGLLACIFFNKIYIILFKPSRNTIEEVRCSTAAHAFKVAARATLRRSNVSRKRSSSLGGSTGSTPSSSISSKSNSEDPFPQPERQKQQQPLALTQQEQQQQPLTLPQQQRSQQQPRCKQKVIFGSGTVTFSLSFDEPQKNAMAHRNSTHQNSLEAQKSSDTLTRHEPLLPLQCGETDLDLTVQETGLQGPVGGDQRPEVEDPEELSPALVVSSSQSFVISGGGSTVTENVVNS

For EWVPVTK peptide, the Kd is given as 3.2 nM.
